Measurements taken from patent US7238711.

How the values were obtained:
[1] = target: chemokine receptors on THP-1 cells; assay: biotinylated peptide on THP-1 cells, streptavidin-peroxidase, Scatchard; with and without 100 µM unlabeled peptide 3 (printed as affinity constant)
[2] = target: chemokine receptors on the surface of Jurkat cells; assay: biotinylated peptide at 100 µM on 10^6 Jurkat cells, streptavidin-peroxidase, TMB
[3] = target: chemokine receptors on THP-1 cells; assay: biotinylated peptide at 100 µM on 4×10^5 THP-1 cells, streptavidin-peroxidase, TMB
[4] = target: CXCR4 (human) (UniProt P61073); assay: cell-based or functional assay
Sequence of CXCR4 (human) (P61073 whole entry): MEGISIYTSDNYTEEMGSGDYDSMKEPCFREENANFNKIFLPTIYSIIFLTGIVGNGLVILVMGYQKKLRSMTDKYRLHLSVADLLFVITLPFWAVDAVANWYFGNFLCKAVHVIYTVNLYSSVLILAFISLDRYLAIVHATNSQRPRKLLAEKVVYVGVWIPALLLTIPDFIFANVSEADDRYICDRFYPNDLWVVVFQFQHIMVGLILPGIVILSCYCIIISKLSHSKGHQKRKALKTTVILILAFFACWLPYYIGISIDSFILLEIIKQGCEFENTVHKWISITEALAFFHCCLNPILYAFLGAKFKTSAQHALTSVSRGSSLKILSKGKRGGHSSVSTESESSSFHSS

[5] = target: chemokine receptors on the surface of Jurkat cells; assay: biotinylated peptide on cells, streptavidin-peroxidase

Kd [1] | percentage inhibition of SDF1α induced THP-1 migration at 100 µM [4] | Substance | ΔA450 nm, alone [2] | ΔA450 nm, specific binding [2] | ΔA450 nm, alone [3] | ΔA450 nm, specific binding [3] | fold specific binding against THP-1 cells [5]
250 nM | – | N-terminal biotin-labeled peptide 2(1-15)[MCP-1] | – | – | – | – | –
– | – | gp120:V3(BaL) (peptide) | 0.167 ΔA450 nm | < 0 ΔA450 nm | 0.642 ΔA450 nm | 0.535 ΔA450 nm | –
– | 87% | KLK (peptide) | – | – | – | – | –
– | – | gp120:V3(IIIb) (peptide) | 0.878 ΔA450 nm | 0.689 ΔA450 nm | 0.268 ΔA450 nm | 0.137 ΔA450 nm | 5 fold
